What is called Kd is the equilibrium constant for the complex coming apart. The low end stands for a tighter complex, the high end for a looser complex.

Series [1] deals with T1, SARS-CoV-2 spike receptor-binding domain (2019-nCoV RBD-SD1, residues 319–566) (SARS-CoV-2, UniProt P0DTC2). The series is described as follows: BLI. The conditions noted are these: both partners purified.
The target of series [2] is T1, SARS-CoV-2 spike receptor-binding ….
For series [3] the target is unchanged. The series is described as follows: thermal shift (nanoDSF). The conditions noted are these: both partners purified. In general terms: DSF heats the sample and reads unfolding from a dye or from intrinsic fluorescence.

B1: sybody 76 (Sb76) (VHH)
VHH: QVQLVESGGGLVQAGGSLRLSCAASSFPVDTYHMAWYRQAPGKEREWVAAIVSWGWRTYYADSVKGRFTISRDNAKNTVYLQMNSLKPEDTAVYYCNVKDIGAQEVHYDYWGQGTQVTVS
notes: source: E. coli MC1061 F-, periplasmic extract, purified (Ni-NTA, desalted in PBS)
B1 displayed a Kd in series [1] of 58.1 nM.

B2: 85 (VHH)
VHH: QVQLVESGGGSVQAGGSLRLSCAASGSISSITYLGWFRQAPGKEREGVAALVTSRGKTYYADSVKGRFTVSLDNAKNTVYLQMNSLKPEDTALYYCAAASWGYTWPLYTYDYWYWGQGTQVTVS
In the case of B2, in series [2], the binding result is listed as “binds”.

B3: sybody 100 (Sb100) (VHH)
VHH: QVQLVESGGGSVQAGGSLRLSCAASGSISSITYLGWFRQAPGKEREGVAALVTSDGRTYYADSVKGRFTVSLDNAKNTVYLQMNSLKPEDTALYYCAAANWGYSWPLYQTEYWYWGQGTQVTVS
notes: as for B1
In series [1], B3 had an equilibrium dissociation constant (Kd) of 38.7 nM.

B4: 93 (VHH)
VHH: QVQLVESGGGSVQAGGSLRLSCAASGHIAQIEYLGWFRQAPGKEREGVAALSTNQGYTYYADSVKGRFTVSLDNAKNTVYLQMNSLKPEDTALYYCAAARWGRTYPLSYMAYTYWGQGTQVTVS
B4: the binding result in series [2] is “binds”.

B5: 90 (VHH)
VHH: QVQLVESGGGSVQAGGSLRLSCAASGAINQIYYLGWFRQAPGKEREGVAALSTKYGETYYADSVKGRFTVSLDNAKNTVYLQMNSLKPEDTALYYCAAARWGRQYPLTFVYYSYWGQGTQVTVS
B5: the binding result in series [2] was “binds”.

B6: 88 (VHH)
VHH: QVQLVESGGGLVQAGGSLRLSCAASGFPVWAHHMLWYRQAPGKEREWVAAIASWGANTAYADSVKGRFTISRDNAKNTVYLQMNSLKPEDTAVYYCNVKDSGQYRENYDYWGQGTQVTVS
As for B6, the binding result in series [2] was “binds”.

B7: sybody 95 (Sb95) (VHH)
VHH: QVQLVESGGGSVQAGGSLRLSCAASGNIYNIKYLGWFRQAPGKEREGVAALMTRYGETYYADSVKGRFTVSLDNAKNTVYLQMNSLKPEDTALYYCAAASYGANWPLVSAAYTYWGQGTQVTVS
notes: as for B1
As to B7, the Kd in series [1] stood at 43.9 nM.

B8: sybody 23 (Sb23) (VHH)
VHH: QVQLVESGGGLVQAGGSLRLSCAASGFPVESENMHWYRQAPGKEREWVAAIYSTGGWTLYADSVKGRFTISRDNAKNTVYLQMNSLKPEDTAVYYCAVQVGYWYEGQGTQVTVS
notes: as for B1
In the case of B8, binding in series [1] was put at a Kd of 10.6 nM. Moreover, the “increase of the melting temperature of RBD” value in series [3] was approximately 10 degrees.

B9: 82 (VHH)
VHH: QVQLVESGGGSVQAGGSLRLSCAASGTINSIHYLGWFRQAPGKEREGVAALDTYIGYTYYADSVKGRFTVSLDNAKNTVYLQMNSLKPEDTALYYCAAARWGRTSPLHWYYYTYWGQGTQVTVS
B9: the binding result in series [2] is “binds”.

B10: 84 (VHH)
VHH: QVQLVESGGGSVQAGGSLRLSCAASGYIKHIEYLGWFRQAPGKEREGVAALKTSSGSTYYADSVKGRFTVSLDNAKNTVYLQMNSLKPEDTALYYCAAARYGRSDPLHYHEYSYWGQGTQVTVS
On to B10, for which the binding result in series [2] is “binds”.

B11: sybody 12 (Sb12) (VHH)
VHH: QVQLVESGGGLVQAGGSLRLSCAASGFPVQLYWMEWYRQAPGKEREWVAAITSDGDYTEYADSVKGRFTISRDNAKNTVYLQMNSLKPEDTAVYYCYVKVGEWYYGQGTQVTVS
notes: as for B1
In series [1], B11 returned a Kd of 24.2 nM.

B12: 94 (VHH)
VHH: QVQLVESGGGSVQAGGSLRLSCAASGYITMIEYLGWFRQAPGKEREGVAALNTHTGGTYYADSVKGRFTVSLDNAKNTVYLQMNSLKPEDTALYYCAAARWGRYEPLHYAYYSYWGQGTQVTVS
In the case of B12, the binding result in series [2] is on record as “binds”.

B13: sybody 42 (Sb42) (VHH)
VHH: QVQLVESGGGLVQAGGSLRLSCAASGFPVYNTWMEWYRQAPGKEREWVAAITSWGFKTYYADSVKGRFTISRDNAKNTVYLQMNSLKPEDTAVYYCNVKDEGYTGYYYDYWGQGTQVTVS
notes: as for B1
For the molecule B13, the Kd in series [1] was 5 nM.

B14: 83 (VHH)
VHH: QVQLVESGGGSVQAGGSLRLSCAASGGITHIVYLGWFRQAPGKEREGVAALMTRWGTTYYADSVKGRFTVSLDNAKNTVYLQMNSLKPEDTALYYCAAAKYGQNFPLSYHAYRYWGQGTQVTVS
As for B14, the binding result in series [2] is listed as “binds”.

B15: 86 (VHH)
VHH: QVQLVESGGGSVQAGGSLRLSCAASGTIASIIYLGWFRQAPGKEREGVAALNTWNGKTYYADSVKGRFTVSLDNAKNTVYLQMNSLKPEDTALYYCAAAYSGMWYPLSNEHYGYWGQGTQVTVS
Regarding B15, in series [2], the binding result is “binds”.

B16: 97 (VHH)
VHH: QVQLVESGGGSVQAGGSLRLSCAASGAISTIEYLGWFRQAPGREREGVAALYTERGYTYYADSVKGRFTVSLDNAKNTVYLQMNSLKPEDTALYYCAAARYGHAQAPLHYFWYGYWGQGTQVTVS
As to B16, in series [2], the binding result is listed as “binds”.

B17: 81 (VHH)
VHH: QVQLVESGGGSVQAGGSLRLSCAASGYIHRIEYLGWFRQAPGKEREGVAALSTISGNTYYADSVKGRFTVSLDNAKNTVYLQMNSLKPEDTALYYCAAARFGRAYPLHYYQYTYWGQGTQVTVS
As to B17, the binding result in series [2] is recorded as “binds”.

For the origin of these results see publication PMC7642358 (Nature Communications, 2020).
